# B1: CLU: secreted disulfide-linked heterodimeric glycoprotein (70-80 KD); assays used recombinant mouse CLU with C-terminal (His)6 (protein, UniProt Q06890 22-448, looked up)
# Clusterin: EQEVSDNELQELSTQGSRYINKEIQNAVQGVKHIKTLIEKTNAERKSLLNSLEEAKKKKEDALEDTRDSEMKLKAFPEVCNETMMALWEECKPCLKHTCMKFYARVCRSGSGLVGQQLEEFLNQSSPFYFWMNGDRIDSLLESDRQQSQVLDAMQDSFARASGIIDTLFQDRFFARELHDPHYFSPIGFPHKRPHFLYPKSRLVRSLMSPSHYGPPSFHNMFQPFFEMIHQAQQAMDVQLHSPAFQFPDVDFLREGEDDRTVCKEIRRNSTGCLKMKGQCEKCQEILSVDCSTNNPAQANLRQELNDSLQVAERLTEQYKELLQSFQSKMLNTSSLLEQLNDQFNWVSQLANLTQGEDKYYLRVSTVTTHSSDSEVPSRVTEVVVKLFDSDPITVVLPEEVSKDNPKFMDTVAEKALQEYRRKSRAE
# modifications: C-terminal His6 tag
# Tested on: GST-MMP-9
# Sequence (P41245 109-730 limits assumed): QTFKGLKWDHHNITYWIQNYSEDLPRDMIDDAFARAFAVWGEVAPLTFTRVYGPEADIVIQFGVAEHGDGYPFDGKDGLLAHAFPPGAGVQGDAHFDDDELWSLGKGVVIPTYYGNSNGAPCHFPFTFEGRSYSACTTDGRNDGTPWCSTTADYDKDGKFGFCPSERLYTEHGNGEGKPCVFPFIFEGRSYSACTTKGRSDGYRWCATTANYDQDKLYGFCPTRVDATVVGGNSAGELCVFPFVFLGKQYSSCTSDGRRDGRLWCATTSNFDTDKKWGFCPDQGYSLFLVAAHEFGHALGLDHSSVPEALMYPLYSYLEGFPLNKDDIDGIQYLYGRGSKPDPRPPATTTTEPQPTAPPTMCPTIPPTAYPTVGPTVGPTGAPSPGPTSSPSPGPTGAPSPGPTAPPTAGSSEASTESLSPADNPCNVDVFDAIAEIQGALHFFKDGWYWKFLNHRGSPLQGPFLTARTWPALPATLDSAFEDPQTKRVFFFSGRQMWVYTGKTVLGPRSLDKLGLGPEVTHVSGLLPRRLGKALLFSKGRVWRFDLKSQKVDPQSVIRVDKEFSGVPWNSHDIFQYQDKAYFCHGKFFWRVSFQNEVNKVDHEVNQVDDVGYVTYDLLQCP
# Assay: GST pull-down assay with GST-tagged MMP-9
# Type: binding, mouse
# Conditions: presence or absence of bacterial lysate
# Procedure: (A) GST-tagged MMP-9 was purified from the bacterial cells transformed by the expression vector, and immobilized to the anti-GST-beads to prepare MMP-9-GST beads. Purified CLU-HA was incubated with MMP-9-GST beads (M-GST) or GST-beads (GST) in the presence (+Lysate) or absence (−Lysate) of bacterial lysate, followed by washing the beads with binding buffer. Bound proteins were resolved on denaturing 8% SDS/PAGE gel for the immunoblotting with anti-HA antibody. CLU cDNA detected in the yeast two hybrid assay, which corresponds to the CLU coding sequence beginning at position 212 from the ATG site, was used to produce a protein band of approximately 40 KDa. (B) Gelatin (20 μg) and CLU (2 μg) were mixed and incubated in the presence or absence of active MMP-9, followed by denaturing 12% SDS/PAGE gel electrophoresis, which then was stained with Coomasie blue. Two subunits of CLU are designated as α and β.
# The GST tagged MMP-9 constructs were generated by ligation of the pGB-MMP-9 EcoR I/Sal I inserts into the pGEX 4T vector (Amersham, Piscataway, N.J.). The pGEX 4T MMP-9 constructs were transformed into the E. Coli strain BL21(DE3) (Novagen, Gibbstown, N.J.) for expression. […]
# To further confirm the interaction between MMP-9 and CLU that was detected by yeast two hybrid screening, we performed GST pull down assay using recombinant GST-tagged MMP-9 fusion protein. […]
molecule,measurement,value
B1,interaction of HA-tagged CLU with GST-MMP-9,still interacted even in the presence of the bacterial lysate

# Source: patent US10398755B2, “Clusterin pharmaceuticals and treatment methods using the same” (UNIVERSITY OF SOUTHERN CALIFORNIA, priority 2009, dated 2019)
